# Target: Fzd7/Sdc4 co-receptor complex (mouse) (UniProt Q61090)
# Assay: cell-based or functional assay
# Sequence of Fzd7/Sdc4 co-receptor complex (mouse) (O35988 24-198, chain 2 of 2, other chains not shown): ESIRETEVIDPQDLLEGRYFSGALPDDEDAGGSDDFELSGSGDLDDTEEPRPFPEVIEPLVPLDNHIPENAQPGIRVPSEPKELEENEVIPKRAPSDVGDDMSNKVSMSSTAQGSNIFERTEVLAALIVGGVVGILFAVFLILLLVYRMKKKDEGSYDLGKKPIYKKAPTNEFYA
Substance,"increase in numbers of Pax7+/YFP+ cells, FN&Wnt7a condition, 72 h [%]","increase in numbers of satellite stem cells, FN&Wnt7a relative to COL&Wnt7a, 72 h [%]","increase in the proportion of symmetric Pax7+/YFP- cell divisions, FN&Wnt7a, 42 h [%]","increase in the proportion of symmetric cell divisions, COL&Wnt7a against COL alone, 42 h [%]"
human plasma fibronectin (BD biosciences) (from UniProt P02751 32-2296) (ligand),38,156,163,
recombinant Wnt7a (R&D Systems) (ligand),,,,108
